Source: patent US20250340902A1, “GENE THERAPY FOR BVES-RELATED DISORDERS” (OHIO STATE INNOVATION FOUNDATION, priority 2022, published 2025)

Legend:
[1] = target: MICOS complex subunit Mic60 (Mus musculus) (UniProt Q8CAQ8); assay: anti-HA co-IP from muscle, MS; CTRL 4
[2] = target: Carnitine O-palmitoyltransferase 1, muscle isoform (Mus musculus) (UniProt Q924X2); assay: anti-HA co-IP from muscle, MS; CTRL 4
[3] = target: Phosphorylase b kinase regulatory subunit beta (Mus musculus) (UniProt Q7TSH2); assay: anti-HA co-IP from muscle, MS; CTRL 4
[4] = target: Trifunctional enzyme subunit beta, mitochondrial (Mus musculus) (UniProt Q99JY0); assay: anti-HA co-IP from muscle, MS; CTRL 4
Trifunctional enzyme subunit beta, mitochondrial (Mus musculus), sequence (Q99JY0 35-475 limits assumed): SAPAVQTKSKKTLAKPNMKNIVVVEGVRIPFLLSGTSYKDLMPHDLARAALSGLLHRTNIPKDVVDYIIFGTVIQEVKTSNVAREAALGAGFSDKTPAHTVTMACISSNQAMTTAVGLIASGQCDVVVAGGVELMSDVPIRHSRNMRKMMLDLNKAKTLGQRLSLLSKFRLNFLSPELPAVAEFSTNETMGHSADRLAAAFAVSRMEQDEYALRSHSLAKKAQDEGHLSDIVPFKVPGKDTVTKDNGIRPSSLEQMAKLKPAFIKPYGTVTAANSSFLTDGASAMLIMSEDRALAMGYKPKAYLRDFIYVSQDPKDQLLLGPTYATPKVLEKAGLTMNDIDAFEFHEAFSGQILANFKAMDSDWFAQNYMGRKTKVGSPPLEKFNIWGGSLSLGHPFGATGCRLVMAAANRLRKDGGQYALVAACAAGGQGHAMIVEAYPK

[5] = target: Obg-like ATPase 1 (Mus musculus) (UniProt Q9CZ30); assay: anti-HA co-IP from muscle, MS; CTRL 0
[6] = target: BAG family molecular chaperone regulator 2 (Mus musculus) (UniProt Q91YN9); assay: anti-HA co-IP from muscle, MS; CTRL 0
[7] = target: Mannose-binding protein C (Mus musculus) (UniProt P41317); assay: anti-HA co-IP from muscle, MS; CTRL 0
Mannose-binding protein C (Mus musculus), sequence (P41317 19-244 limits assumed): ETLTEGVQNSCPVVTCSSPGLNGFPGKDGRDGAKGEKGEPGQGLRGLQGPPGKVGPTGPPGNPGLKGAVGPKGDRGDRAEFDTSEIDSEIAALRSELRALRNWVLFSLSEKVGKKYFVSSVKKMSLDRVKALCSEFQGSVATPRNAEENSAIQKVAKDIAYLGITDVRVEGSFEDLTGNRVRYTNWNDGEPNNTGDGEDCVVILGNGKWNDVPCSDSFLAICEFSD

[8] = target: Alanine--tRNA ligase, cytoplasmic (Mus musculus) (UniProt Q8BGQ7); assay: anti-HA co-IP from muscle, MS; CTRL 0
[9] = target: Ankyrin-3 (Mus musculus) (UniProt G5E8K5); assay: anti-HA co-IP from muscle, MS; CTRL 0
[10] = target: E3 ubiquitin-protein ligase UBR4 (Mus musculus) (UniProt A2AN08); assay: anti-HA co-IP from muscle, MS; CTRL 0
[11] = target: Nucleolar protein of 40 kDa (Mus musculus) (UniProt Q9ESX4); assay: anti-HA co-IP from muscle, MS; CTRL 0
Nucleolar protein of 40 kDa (Mus musculus), sequence (Q9ESX4 whole entry, the tested form may be a part): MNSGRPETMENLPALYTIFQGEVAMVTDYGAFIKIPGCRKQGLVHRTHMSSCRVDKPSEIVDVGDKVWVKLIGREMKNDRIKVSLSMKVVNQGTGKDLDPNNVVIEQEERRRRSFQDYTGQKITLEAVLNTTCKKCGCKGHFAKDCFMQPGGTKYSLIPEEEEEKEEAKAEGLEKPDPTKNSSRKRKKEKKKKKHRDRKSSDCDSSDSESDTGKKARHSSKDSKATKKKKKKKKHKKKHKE

[12] = target: C-type lectin domain family 3 member A (Mus musculus) (UniProt Q9EPW4); assay: anti-HA co-IP from muscle, MS; CTRL 0
[13] = target: Glypican-4 (Mus musculus) (UniProt P51655); assay: anti-HA co-IP from muscle, MS; CTRL 0
Glypican-4 (Mus musculus), sequence (P51655 19-529 limits assumed): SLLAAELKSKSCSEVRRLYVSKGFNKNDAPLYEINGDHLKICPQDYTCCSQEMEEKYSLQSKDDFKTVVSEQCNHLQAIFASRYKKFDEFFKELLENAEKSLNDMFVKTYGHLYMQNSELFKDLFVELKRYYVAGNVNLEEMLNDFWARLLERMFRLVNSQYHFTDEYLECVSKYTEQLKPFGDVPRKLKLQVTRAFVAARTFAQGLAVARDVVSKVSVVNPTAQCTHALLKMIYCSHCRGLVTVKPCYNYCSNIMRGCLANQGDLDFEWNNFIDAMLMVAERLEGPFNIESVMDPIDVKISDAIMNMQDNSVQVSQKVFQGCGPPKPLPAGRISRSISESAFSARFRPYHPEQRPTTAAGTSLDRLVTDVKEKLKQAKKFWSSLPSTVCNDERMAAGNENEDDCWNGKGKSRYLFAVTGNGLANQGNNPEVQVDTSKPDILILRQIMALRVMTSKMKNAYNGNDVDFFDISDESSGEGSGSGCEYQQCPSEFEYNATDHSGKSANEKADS

[14] = target: Phosphatidylinositol 5-phosphate 4-kinase type-2 beta (Mus musculus) (UniProt Q80XI4); assay: anti-HA co-IP from muscle, MS; CTRL 0
[15] = target: Beta-sarcoglycan (Mus musculus) (UniProt P82349); assay: anti-HA co-IP from muscle, MS; CTRL 0
[16] = target: Delta-sarcoglycan (Mus musculus) (UniProt P82347); assay: anti-HA co-IP from muscle, MS; CTRL 0
[17] = target: Dystrobrevin alpha (Mus musculus) (UniProt Q9D2N4); assay: anti-HA co-IP from muscle, MS; CTRL 0
[18] = target: Spectrin alpha chain, erythrocytic 1 (Mus musculus) (UniProt P08032); assay: anti-HA co-IP from muscle, MS; CTRL 0
[19] = target: MAP7 domain-containing protein 1 (Mus musculus) (UniProt A2AJI0); assay: anti-HA co-IP from muscle, MS; CTRL 0
[20] = target: ATP-binding cassette sub-family C member 9 (Mus musculus) (UniProt P70170); assay: anti-HA co-IP from muscle, MS; CTRL 0
[21] = target: Proliferation-associated protein 2G4 (Mus musculus) (UniProt P50580); assay: anti-HA co-IP from muscle, MS; CTRL 0
[22] = target: Lupus La protein homolog (Mus musculus) (UniProt P32067); assay: anti-HA co-IP from muscle, MS; CTRL 0
[23] = target: Heterogeneous nuclear ribonucleoprotein M (Mus musculus) (UniProt Q9D0E1); assay: anti-HA co-IP from muscle, MS; CTRL 0
Heterogeneous nuclear ribonucleoprotein M (Mus musculus), sequence (Q9D0E1 2-729 limits assumed): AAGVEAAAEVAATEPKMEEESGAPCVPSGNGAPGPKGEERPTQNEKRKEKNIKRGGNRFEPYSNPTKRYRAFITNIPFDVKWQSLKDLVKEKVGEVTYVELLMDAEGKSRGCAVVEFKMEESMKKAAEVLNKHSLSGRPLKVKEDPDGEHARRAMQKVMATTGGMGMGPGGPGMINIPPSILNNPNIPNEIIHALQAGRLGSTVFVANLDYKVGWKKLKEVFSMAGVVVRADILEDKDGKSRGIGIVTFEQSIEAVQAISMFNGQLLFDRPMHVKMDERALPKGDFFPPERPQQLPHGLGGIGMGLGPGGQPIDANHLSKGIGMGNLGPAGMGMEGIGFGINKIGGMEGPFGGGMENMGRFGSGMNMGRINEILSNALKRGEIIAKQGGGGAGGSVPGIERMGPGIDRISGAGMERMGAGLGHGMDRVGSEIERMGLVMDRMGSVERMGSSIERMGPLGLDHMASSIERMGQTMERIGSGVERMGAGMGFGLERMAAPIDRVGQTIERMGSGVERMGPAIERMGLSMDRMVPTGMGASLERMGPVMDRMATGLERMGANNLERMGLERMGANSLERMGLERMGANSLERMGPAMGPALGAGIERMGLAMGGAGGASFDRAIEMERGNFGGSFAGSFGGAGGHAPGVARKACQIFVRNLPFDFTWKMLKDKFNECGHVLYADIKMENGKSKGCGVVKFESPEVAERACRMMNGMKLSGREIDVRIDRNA

[24] = target: Endoplasmic reticulum transmembrane helix translocase (Mus musculus) (UniProt Q9EPE9); assay: anti-HA co-IP from muscle, MS; CTRL 0
[25] = target: Probable ubiquitin carboxyl-terminal hydrolase FAF-X (Mus musculus) (UniProt P70398); assay: anti-HA co-IP from muscle, MS; CTRL 0
[26] = target: Popeye domain-containing protein 3 (Mus musculus) (UniProt Q9ES81); assay: anti-HA co-IP from muscle, MS; CTRL 0
[27] = target: Phosphofurin acidic cluster sorting protein 1 (Mus musculus) (UniProt Q8K212); assay: anti-HA co-IP from muscle, MS; CTRL 0
[28] = target: NADH dehydrogenase [ubiquinone] flavoprotein 1, mitochondrial (Mus musculus) (UniProt Q91YT0); assay: anti-HA co-IP from muscle, MS; CTRL 0
NADH dehydrogenase [ubiquinone] flavoprotein 1, mitochondrial (Mus musculus), sequence (Q91YT0 21-464 limits assumed): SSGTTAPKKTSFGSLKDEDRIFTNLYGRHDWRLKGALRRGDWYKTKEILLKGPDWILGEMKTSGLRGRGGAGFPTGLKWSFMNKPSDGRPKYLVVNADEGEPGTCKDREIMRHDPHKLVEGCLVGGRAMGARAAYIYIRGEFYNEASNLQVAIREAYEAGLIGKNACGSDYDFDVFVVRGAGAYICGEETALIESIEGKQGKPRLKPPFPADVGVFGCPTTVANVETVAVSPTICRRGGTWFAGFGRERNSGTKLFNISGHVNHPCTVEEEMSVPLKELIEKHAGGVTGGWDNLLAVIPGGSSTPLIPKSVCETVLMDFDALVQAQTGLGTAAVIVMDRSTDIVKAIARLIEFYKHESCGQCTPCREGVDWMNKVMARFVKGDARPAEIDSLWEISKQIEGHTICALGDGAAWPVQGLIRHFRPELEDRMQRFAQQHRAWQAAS

[29] = target: Myocilin (Mus musculus) (UniProt O70624); assay: anti-HA co-IP from muscle, MS; CTRL 0
[30] = target: Glutamine amidotransferase-like class 1 domain-containing protein 3A, mitochondrial (Mus musculus) (UniProt Q9D172); assay: anti-HA co-IP from muscle, MS; CTRL 0
[31] = target: Heparin cofactor 2 (Mus musculus) (UniProt P49182); assay: anti-HA co-IP from muscle, MS; CTRL 0
[32] = target: 26S proteasome non-ATPase regulatory subunit 7 (Mus musculus) (UniProt P26516); assay: anti-HA co-IP from muscle, MS; CTRL 0
26S proteasome non-ATPase regulatory subunit 7 (Mus musculus), sequence (P26516 whole entry): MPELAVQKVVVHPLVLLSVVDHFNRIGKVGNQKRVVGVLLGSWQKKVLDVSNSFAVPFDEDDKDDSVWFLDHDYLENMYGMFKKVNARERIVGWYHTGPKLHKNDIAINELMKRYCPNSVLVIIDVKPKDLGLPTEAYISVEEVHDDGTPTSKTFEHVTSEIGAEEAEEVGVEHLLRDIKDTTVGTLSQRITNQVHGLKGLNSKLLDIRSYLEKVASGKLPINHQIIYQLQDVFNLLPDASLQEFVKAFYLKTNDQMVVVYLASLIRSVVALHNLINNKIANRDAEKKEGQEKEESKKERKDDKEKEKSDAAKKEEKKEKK

[33] = target: Ankyrin-1 (Mus musculus) (UniProt Q02357); assay: anti-HA co-IP from muscle, MS; CTRL 0
[34] = target: Multidrug resistance-associated protein 1 (Mus musculus) (UniProt O35379); assay: anti-HA co-IP from muscle, MS; CTRL 0
[35] = target: Chromatin-remodeling ATPase INO80 (Mus musculus) (UniProt Q6ZPV2); assay: anti-HA co-IP from muscle, MS; CTRL 0
[36] = target: Popeye domain-containing protein 2 (Mus musculus) (UniProt Q9ES82); assay: anti-HA co-IP from muscle, MS; CTRL 0
Popeye domain-containing protein 2 (Mus musculus), sequence (Q9ES82 whole entry, the tested form may be a part): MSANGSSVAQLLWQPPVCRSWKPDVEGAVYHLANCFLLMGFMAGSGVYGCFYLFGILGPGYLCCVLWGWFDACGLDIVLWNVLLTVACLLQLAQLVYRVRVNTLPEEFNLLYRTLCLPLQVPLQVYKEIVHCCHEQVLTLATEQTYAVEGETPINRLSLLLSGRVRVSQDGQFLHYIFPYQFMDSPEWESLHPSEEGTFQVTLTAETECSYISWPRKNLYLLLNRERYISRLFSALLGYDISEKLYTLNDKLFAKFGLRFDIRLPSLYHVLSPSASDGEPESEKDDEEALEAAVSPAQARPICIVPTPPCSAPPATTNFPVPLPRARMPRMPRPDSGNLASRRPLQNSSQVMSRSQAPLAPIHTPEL

[37] = target: NADH dehydrogenase [ubiquinone] iron-sulfur protein 3, mitochondrial (Mus musculus) (UniProt Q9DCT2); assay: anti-HA co-IP from muscle, MS; CTRL 0
[38] = target: Splicing factor 3A subunit 1 (Mus musculus) (UniProt Q8K4Z5); assay: anti-HA co-IP from muscle, MS; CTRL 0
Splicing factor 3A subunit 1 (Mus musculus), sequence (Q8K4Z5 whole entry): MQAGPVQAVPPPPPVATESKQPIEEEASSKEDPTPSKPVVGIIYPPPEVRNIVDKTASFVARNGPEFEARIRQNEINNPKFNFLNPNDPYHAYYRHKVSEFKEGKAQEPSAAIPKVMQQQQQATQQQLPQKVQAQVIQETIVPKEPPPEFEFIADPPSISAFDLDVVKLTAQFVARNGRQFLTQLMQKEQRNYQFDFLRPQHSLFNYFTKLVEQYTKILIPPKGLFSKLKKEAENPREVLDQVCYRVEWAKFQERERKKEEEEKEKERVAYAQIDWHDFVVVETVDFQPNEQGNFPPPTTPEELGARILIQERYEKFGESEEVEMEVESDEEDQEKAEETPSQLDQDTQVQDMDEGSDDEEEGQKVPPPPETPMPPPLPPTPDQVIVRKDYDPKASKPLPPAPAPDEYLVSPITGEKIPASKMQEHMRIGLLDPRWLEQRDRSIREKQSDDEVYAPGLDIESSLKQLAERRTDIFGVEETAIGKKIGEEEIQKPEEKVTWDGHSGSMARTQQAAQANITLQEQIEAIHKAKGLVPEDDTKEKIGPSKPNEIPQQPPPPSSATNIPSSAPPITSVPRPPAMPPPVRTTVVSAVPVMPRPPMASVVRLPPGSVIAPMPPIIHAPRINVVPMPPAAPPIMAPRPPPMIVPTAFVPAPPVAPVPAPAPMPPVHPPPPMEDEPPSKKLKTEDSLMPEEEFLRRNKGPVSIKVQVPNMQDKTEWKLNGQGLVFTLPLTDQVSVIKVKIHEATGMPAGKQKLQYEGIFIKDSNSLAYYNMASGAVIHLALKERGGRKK

Carnitine O-palmitoyltransferase 1, muscle isoform (Mus musculus), sequence (Q924X2 whole entry, canonical isoform): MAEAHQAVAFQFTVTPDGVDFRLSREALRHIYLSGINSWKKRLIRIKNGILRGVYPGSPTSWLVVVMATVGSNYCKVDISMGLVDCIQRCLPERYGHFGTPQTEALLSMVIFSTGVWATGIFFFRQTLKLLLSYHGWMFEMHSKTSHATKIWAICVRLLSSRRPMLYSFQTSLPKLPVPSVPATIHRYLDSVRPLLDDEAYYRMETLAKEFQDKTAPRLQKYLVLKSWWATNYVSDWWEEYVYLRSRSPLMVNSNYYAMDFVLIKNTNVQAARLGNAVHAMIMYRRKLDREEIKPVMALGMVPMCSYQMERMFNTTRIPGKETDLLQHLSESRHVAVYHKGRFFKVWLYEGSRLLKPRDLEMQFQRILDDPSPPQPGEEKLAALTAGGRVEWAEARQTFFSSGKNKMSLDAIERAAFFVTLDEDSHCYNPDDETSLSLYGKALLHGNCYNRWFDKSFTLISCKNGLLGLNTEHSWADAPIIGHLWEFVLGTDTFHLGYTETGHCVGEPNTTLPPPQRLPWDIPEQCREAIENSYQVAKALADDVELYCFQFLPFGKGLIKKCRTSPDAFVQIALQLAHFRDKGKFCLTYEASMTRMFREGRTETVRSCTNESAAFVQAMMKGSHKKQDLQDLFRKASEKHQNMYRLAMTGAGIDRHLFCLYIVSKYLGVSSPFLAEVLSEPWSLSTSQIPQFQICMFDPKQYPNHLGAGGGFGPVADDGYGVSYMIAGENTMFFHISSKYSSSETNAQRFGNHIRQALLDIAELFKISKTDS

human BVES fused with 3xHA tag (from UniProt Q8NE79 1-360)
AAV9-BVES-HA (IP-MS count) [1]: 15
AAV9-BVES-HA (IP-MS count) [2]: 24
AAV9-BVES-HA (IP-MS count) [3]: 18
AAV9-BVES-HA (IP-MS count) [4]: 13
AAV9-BVES-HA (IP-MS count) [5]: 2
AAV9-BVES-HA (IP-MS count) [6]: 6
AAV9-BVES-HA (IP-MS count) [7]: 2
AAV9-BVES-HA (IP-MS count) [8]: 4
AAV9-BVES-HA (IP-MS count) [9]: 242
AAV9-BVES-HA (IP-MS count) [10]: 4
AAV9-BVES-HA (IP-MS count) [11]: 2
AAV9-BVES-HA (IP-MS count) [12]: 6
AAV9-BVES-HA (IP-MS count) [13]: 11
AAV9-BVES-HA (IP-MS count) [14]: 2
AAV9-BVES-HA (IP-MS count) [15]: 9
AAV9-BVES-HA (IP-MS count) [16]: 5
AAV9-BVES-HA (IP-MS count) [17]: 4
AAV9-BVES-HA (IP-MS count) [18]: 27
AAV9-BVES-HA (IP-MS count) [19]: 2
AAV9-BVES-HA (IP-MS count) [20]: 14
AAV9-BVES-HA (IP-MS count) [21]: 7
AAV9-BVES-HA (IP-MS count) [22]: 2
AAV9-BVES-HA (IP-MS count) [23]: 2
AAV9-BVES-HA (IP-MS count) [24]: 3
AAV9-BVES-HA (IP-MS count) [25]: 3
AAV9-BVES-HA (IP-MS count) [26]: 5
AAV9-BVES-HA (IP-MS count) [27]: 2
AAV9-BVES-HA (IP-MS count) [28]: 3
AAV9-BVES-HA (IP-MS count) [29]: 2
AAV9-BVES-HA (IP-MS count) [30]: 4
AAV9-BVES-HA (IP-MS count) [31]: 4
AAV9-BVES-HA (IP-MS count) [32]: 2
AAV9-BVES-HA (IP-MS count) [33]: 31
AAV9-BVES-HA (IP-MS count) [34]: 2
AAV9-BVES-HA (IP-MS count) [35]: 2
AAV9-BVES-HA (IP-MS count) [36]: 29
AAV9-BVES-HA (IP-MS count) [37]: 4
AAV9-BVES-HA (IP-MS count) [38]: 4
